In assay [1] the target is T1, mouse PI16 (mouse, UniProt Q9ET66 30-498, limits assumed).
T1 construct: also called Mus musculus PI16
T1 sequence: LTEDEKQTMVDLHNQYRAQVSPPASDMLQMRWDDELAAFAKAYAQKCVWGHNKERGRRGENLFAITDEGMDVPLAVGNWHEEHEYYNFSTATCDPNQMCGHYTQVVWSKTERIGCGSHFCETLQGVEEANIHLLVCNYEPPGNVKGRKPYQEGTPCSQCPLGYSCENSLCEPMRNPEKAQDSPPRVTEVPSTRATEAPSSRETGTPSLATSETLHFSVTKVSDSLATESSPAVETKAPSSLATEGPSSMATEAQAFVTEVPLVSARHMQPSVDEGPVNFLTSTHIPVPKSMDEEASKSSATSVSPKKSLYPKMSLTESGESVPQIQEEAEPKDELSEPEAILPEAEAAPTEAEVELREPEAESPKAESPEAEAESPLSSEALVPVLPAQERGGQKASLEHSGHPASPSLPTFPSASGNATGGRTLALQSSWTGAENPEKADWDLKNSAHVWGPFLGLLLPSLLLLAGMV
Description: not described.

Assay [2] concerns the target T2, Abnova recombinant PI16 protein (expressed using a wheat germ cell free system) (UniProt Q6UXB8 1-463, limits assumed).
T2 construct: Bought product; also called Rec. protein Abnova; Abnova recombinant protein
T2 sequence (looked up): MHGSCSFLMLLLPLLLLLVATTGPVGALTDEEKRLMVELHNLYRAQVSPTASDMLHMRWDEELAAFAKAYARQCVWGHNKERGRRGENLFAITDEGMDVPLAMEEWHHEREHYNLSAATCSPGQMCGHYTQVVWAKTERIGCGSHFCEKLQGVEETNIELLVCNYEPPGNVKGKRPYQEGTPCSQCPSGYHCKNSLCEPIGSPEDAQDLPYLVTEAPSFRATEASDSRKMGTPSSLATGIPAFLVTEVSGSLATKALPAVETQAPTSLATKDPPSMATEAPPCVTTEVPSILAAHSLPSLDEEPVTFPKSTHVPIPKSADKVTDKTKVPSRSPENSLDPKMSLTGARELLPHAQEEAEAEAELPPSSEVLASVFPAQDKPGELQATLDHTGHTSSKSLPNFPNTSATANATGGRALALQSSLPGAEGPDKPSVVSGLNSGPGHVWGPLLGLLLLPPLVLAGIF
Description: slot blot. The protocol:
100 μl of samples (as indicated) were loaded into each slot onto nitrocellulose membrane (Protran; Schleicher & Schuell) under vacuum. After loading, the blot was blocked for 1 hour at RT with 3% skim milk powder (Diploma) in PBS Tween 0.05% (block buffer). The primary Ab (secreted by CRCBT-02-001 or the polyclonal PI16 antibody from Abnova) was diluted in block buffer one in two and incubated on a platform rocker for 1 hour at RT. The blot was washed 3×5 minutes with PBS tween. Biotinylated horse anti mouse (Vector) 1/1000 diluted in block buffer was added and incubated for one hour at RT on rocking platform. The blot was washed 3×5 minutes with PBS tween. A dilution of 1/1000 SA:HRP (GE Healthcare) in block buffer was added and incubated for one hour at RT on rocking platform. The blot was washed 3×5 minutes with PBS tween. An appropriate volume of ECL solutions A and B (enough to cover membrane surface; ECL Advance Western Blotting Kit, GE Healthcare) was added and incubated for one minute with constant shaking. The blot was read immediately in a G:Box (Syngene) upon 15 seconds UV-exposure.
To determine the protein to which the monoclonal antibody binds, slot blots were performed.

Assay [3] addresses T3, fragment of PI16 expressed by phage clone 4 (round 3) (human).
T3 construct: also called R3 4
T3 chain: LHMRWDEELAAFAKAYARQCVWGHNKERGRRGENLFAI
The experiment in a line: phage ELISA of PI16 gene fragment clones.

For assay [4], the target named is T4, fragment of PI16 expressed by phage clone 7 (round 3) (human).
T4 construct: also called R3 7
T4 chain: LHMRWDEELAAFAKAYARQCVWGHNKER
Description: phage ELISA of PI16 gene fragment clones. Background: An ELISA detects its analyte on a solid surface through an enzyme-linked reagent.

The target in assay [5] is T5, fragment of PI16 expressed by phage clone 10 (round 3) (human).
T5 construct: also called R3 10
T5 chain: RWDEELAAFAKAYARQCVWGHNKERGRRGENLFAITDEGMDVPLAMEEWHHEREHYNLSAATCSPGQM
The experiment in a line: phage ELISA of PI16 gene fragment clones.

The target in assay [6] is T6, fragment of PI16 expressed by phage clone 12 (round 3) (human).
T6 construct: also called R3 12
T6 chain: LHMRWDEELAAFAKAYARQ
Description: phage ELISA of PI16 gene fragment clones.

Assay [7] has as its target T7, fragment of PI16 expressed by phage clone 15 (round 3) (human).
T7 construct: also called R3 15
T7 chain: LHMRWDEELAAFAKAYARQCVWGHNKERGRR
Description: phage ELISA of PI16 gene fragment clones.

Assay [8] concerns the target T8, PI16-Fc (extracellular domain of human PI16, aa 28-443, tev-protease cleavage site, C-terminal human Fc) (human, UniProt P01857-1 104-330 = IgG part).
T8 construct: domain: Fc; also called recombinant PI16-Fc; native PI16-Fc; not shown: tev-protease cleavage site
Description: SPR (ProteOn XPR36), mAb captured by anti-mouse IgG on GLM chip, PI16-Fc as analyte, Langmuir global fit. How it is done: A proteOn sensor chip (GLM) was activated by flowing a mixture of 0.2 M EDC and 0.05 M sulpho-NHS over the chip ([…] at 30 μL/min for 5 minutes). Rabbit anti-mouse IgG whole molecule (Sigma M-7023) was then coupled to the chip in the vertical orientation by flowing 150 μL of a 50 μg/mL solution in 10 mM acetate buffer (pH 4.5) at 30 μL/min. The remaining coupling sites were then deactivated by flowing 150 μL of 1 M ethanolamine-HCl (pH 8.5) at 30 μL/min. Mouse monoclonal anti PI16 IgG was then allowed to flow over and be captured by the coupled anti-mouse IgG antibody by flowing 150 μL of 100 μg/mL IgG at 25 μL/min over a single channel of the sensor chip in the horizontal direction. […] PBS Tween 20 (0.005%) alone was passed over the remaining channel and served as a reference. Binding sensorgrams were collected and analysed with the ProteOn Manager 2.1×PR36 software using the Langmuir kinetic model to fit the data and determine the affinity constant (KD).
The published method (Nahshol et al., 2008) was used to measure the kinetics of the PI16 mab by anti-mouse capture. This is a relatively mild method coupling method and the association and dissociation curves and affinity measurement was performed with 4 dilutions of the PI16-Fc (FIG. 43 and Table 9). The data fitted well to a Langmuir kinetic model using global fit (all the curves fitted simultaneously).

The target in assay [9] is T8, PI16-Fc (extracellular domain of human …). Description: SPR (ProteOn XPR36), PI16-Fc amine-coupled to GLC chip, Fab as analyte, Langmuir global fit. The protocol:
A ProteOn sensor chip (GLC) was activated by flowing a mixture of 0.2 M N-ethyl-N′-(3-dimethylaminopropyl) carbodiimide (EDC) and 0.05 M sulfo-N-hydroxysuccinimide (sulfo-NHS) over the chip (150 μL at 30 μL/min for 5 minutes). Recombinant PI16-Fc was coupled to the chip in the vertical orientation by flowing 150 μL of a 50 μg/mL solution in 10 mM acetate buffer (pH 4.5) at 30 μL/min. The remaining activated carboxyl group were then deactivated by flowing 150 μL of 1 M ethanolamine-HCl (pH 8.5) at 30 μL/min. […] PBS Tween 20 (0.005%) alone was passed over the remaining channel. Binding sensorgrams were collected and analysed with the ProteOn Manager 2.1×PR36 software using the Langmuir kinetic model to fit the data and determine the affinity constant (KD).
This coupling method was performed using various pHs to optimise the coupling of PI16-Fc to the GLC chip. The optimal coupling pH was 4.5. The association and dissociation curves and affinity measurement was performed with 3 dilutions of the PI16 Fab shown in FIG. 42 and Table 8. The data fitted well to a Langmuir kinetic model using global fit (all the curves fitted simultaneously).

T8 sequence (P01857 other isoform, or with tags, fused parts or gaps): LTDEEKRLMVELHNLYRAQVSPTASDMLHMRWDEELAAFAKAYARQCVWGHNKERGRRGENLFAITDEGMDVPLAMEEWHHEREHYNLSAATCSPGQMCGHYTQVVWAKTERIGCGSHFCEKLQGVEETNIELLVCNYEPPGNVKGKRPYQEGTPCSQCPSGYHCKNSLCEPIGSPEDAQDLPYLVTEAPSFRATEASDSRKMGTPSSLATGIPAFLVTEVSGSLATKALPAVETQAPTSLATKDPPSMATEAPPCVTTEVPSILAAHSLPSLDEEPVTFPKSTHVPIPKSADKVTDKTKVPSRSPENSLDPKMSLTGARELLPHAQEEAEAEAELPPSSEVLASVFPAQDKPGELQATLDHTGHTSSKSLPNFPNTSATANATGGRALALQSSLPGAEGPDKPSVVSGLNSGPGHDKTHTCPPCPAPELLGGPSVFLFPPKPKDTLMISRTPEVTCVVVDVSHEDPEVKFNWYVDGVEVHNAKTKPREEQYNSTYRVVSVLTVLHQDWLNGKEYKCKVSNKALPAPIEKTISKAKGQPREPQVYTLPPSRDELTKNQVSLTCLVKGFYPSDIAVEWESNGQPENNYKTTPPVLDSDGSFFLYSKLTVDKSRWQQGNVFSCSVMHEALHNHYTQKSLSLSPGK

B1: antibody produced by the hybridoma designated CRCBT-02-001 (ATCC PTA-10685) (antibody, V domains shown)
VH: FGGGLVQPGGSMKLSCVASGFTFSYYWMNWVRQSPEQGLEWIAEIRLQSNDYPTHYAESVKGRFTISRDDSKNSVYLQMNNLRPEDTGIYYCACRYADYFDHWGQGTTLTVSS
VL: VMTQSPAILSVYPGEKVTMTCRASLSVSYMHWCQQKPGSSPKSWIYATSNLASGVPARFSGSGSGTSYSLTISRVEAEDAATYYCQQWSSNPFTFGSGTKLEIKR
notes: constant regions are not; Used as hybridoma supernatant or as Protein G purified antibody; also called CRCBT-002-001; P1G5-P2B3
As for B1, the binding result is “no binding” in assay [1]; “no binding” in [2]; “binds” in assay [3]; “binds” in [4]; “binds” in assay [5]; “binds” in [6]. Further, the binding result in assay [7] is recorded as “binds”. In addition, in [8], the Kd worked out at 2.56 nM. In [8], this molecule gave a koff of 0.000149 s⁻¹. The kon in assay [8] worked out at 58200 M⁻¹ s⁻¹.

B2: CRCBT-02-001 Fab (Fab, V domains shown)
VH: B1 VH
VL: B1 VL
notes: also called PI16 Fab; Anti-PI16 Fab fragment
Turning to B2, in assay [9], the affinity, expressed as Kd, was 1.25 nM; the koff came out at 0.000372 s⁻¹; the kon was 297000 M⁻¹ s⁻¹.

The Kd is the concentration at which binding is half-saturated. A lower Kd goes with tighter binding. Broadly, the koff is the first-order rate constant of dissociation. Read a low koff as a long-lived complex. By kon is commonly meant a measure of how fast the partners come together. High values mean fast association, low ones slow association.

For the origin of these results see patent US20130171153A1 (TRANSBIO, published 2013).
